Measured values reported in article doi:10.1101/2021.06.03.446569 (bioRxiv, 2021).
Like-named read-outs stand apart in the source and are kept apart here. Ends that are not written are not given here. * marks the point of attachment. FITC = O=C1OC2(c3ccc(O)cc3Oc3cc(O)ccc32)c2ccc(NC(=S)*)cc21

B1: Rhodamine-labelled MLL peptide (MLL25) (peptide)
peptide: SDDGNILPSDIMDFVLKNTPSMQAL
modifications: also: rhodamine label, position not given here
B2: FITC-labelled MYB peptide (MYB25) (peptide)
peptide: {FITC}-KEKRIKELELLLMSTENELKGQQAL

Key:
Experiment in all cases: fluorescence polarisation
[1] = target: Human P300 KIX domain (EP300 KIX domain) (human) (UniProt Q09472)
Human P300 KIX domain (EP300 KIX domain) (human), sequence (Q09472 565-652): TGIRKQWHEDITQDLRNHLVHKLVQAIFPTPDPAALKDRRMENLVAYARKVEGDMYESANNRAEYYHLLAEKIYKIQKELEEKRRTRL

[2] = target: CBP KIX domain (CREBBP KIX domain) (human) (UniProt Q92793)
CBP KIX domain (CREBBP KIX domain) (human), sequence (Q92793 585-672): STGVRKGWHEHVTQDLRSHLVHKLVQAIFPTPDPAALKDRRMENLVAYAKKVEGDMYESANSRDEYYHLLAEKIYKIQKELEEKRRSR

[3] = target: Human P300 KIX domain (EP300 KIX domain) (human) (UniProt Q09472); remark: listed apart in the source
[4] = target: CBP KIX domain (CREBBP KIX domain) (human) (UniProt Q92793); remark: listed apart in the source
[5] = target: Human P300 KIX domain (EP300 KIX domain) (human, UniProt Q09472 565-652)
Human P300 KIX domain (EP300 KIX domain), sequence (Q09472 565-652): as the sequence (Q09472 565-652) above

[6] = target: CBP KIX domain (CREBBP KIX domain) (human, UniProt Q92793 585-672)
CBP KIX domain (CREBBP KIX domain), sequence (Q92793 585-672): as the sequence (Q92793 585-672) above

| Molecule | IC50 [1] [µM] | IC50 [2] [µM] | IC50 [3] [µM] | IC50 [4] [µM] | Kd [5] [µM] | Kd [6] [µM] |
| --- | --- | --- | --- | --- | --- | --- |
| MLL28MYB30 (M/M) fusion peptide, purified | 8.3 | 23 | 8.5 | 22 |  |  |
| B1 |  |  |  |  | 40 ± 14 | 94 ± 11 |
| B2 |  |  |  |  | 3.8 ± 0.2 |  |
